According to publication doi:10.1101/2025.05.14.653996:

Molecular target: actin filament, unlabelled segment of recombinant cytoplasmic β-actin (UniProt P60709)
Assay: TIRF microscopy of single actin filaments under flow in a microfluidic chamber

Row | Substance | cluster detachment, fold faster at 50 mM KCl than at 100 mM KCl [fold] | fold decrease of the median detachment time from 0.01 to 0.04 pN per Tpm dimer [fold] | cluster detachment, fold slower than sfGFP-Tpm1.6 [fold]
1 | sfGFP-Tpm1.6 (natural protein) | 36 | > 100 | 
2 | sfGFP-Tpm1.7 (natural protein) |  |  | 5.5
